B1: TRIM63 (parent)
chain: FRCPTCRHEVIMDRHGVYGLQRNL
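Also: lentivirally expressed fusions sorted by FACS into six bins by GFP to DsRed ratio, PSI derived from sequencing read proportions per bin multiplied by bin number.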

The data set covers variants of B1. Description: protein stability index of a GFP-peptide fusion (GPS, HEK-293T) (PSI 1-6); higher = more stable. Particulars: c terminus: a fixed tail appended.
Take FRCPTCRHEVIMIRHGVYGLQRNL: the protein stability index was determined as 2.07.

On to FRCPTCRHEVIMGRHGVYGLQRNL, for which the protein stability index was determined as 3.87.

As to FRCPTCRHEVIMHRHGVYGLQRNL, the protein stability index was 1.83.

For FRCPTCRHEVIMWRHGVYGLQRNL, the protein stability index is 2.09.

For the variant FRCPTCRHEVIMERHGVYGLQRNL, the protein stability index was found to be 2.44.

Consider FRCPTCRHEVIMYRHGVYGLQRNL, for which the protein stability index was 1.69.

As for FRCPTCRHEVIMKRHGVYGLQRNL, the protein stability index is 1.76.

In the case of FRCPTCRHEVIMQRHGVYGLQRNL, the protein stability index was determined as 3.89.

In the case of FRCPTCRHEVIMNRHGVYGLQRNL, the protein stability index amounted to 1.04.

Take FRCPTCRHEVIMPRHGVYGLQRNL: the protein stability index was determined as 2.15.

Take FRCPTCRHEVIMRRHGVYGLQRNL: the protein stability index came to 3.

For the variant FRCPTCRHEVIMSRHGVYGLQRNL, the protein stability index was found to be 2.13.

For the variant FRCPTCRHEVIMVRHGVYGLQRNL, the protein stability index is 1.32.

Regarding FRCPTCRHEVIMTRHGVYGLQRNL, the protein stability index came to 1.9.

As to FRCPTCRHEVIMMRHGVYGLQRNL, the protein stability index was 2.79.

FRCPTCRHEVIMFRHGVYGLQRNL: the protein stability index was 1.71.

Consider FRCPTCRHEVIMARHGVYGLQRNL, for which the protein stability index is 2.42.

Regarding FRCPTCRHEVIMCRHGVYGLQRNL, the protein stability index is 2.18.

With FRCPTCRHAVIMDRHGVYGLQRNL, the protein stability index was found to be 2.48.

As for FRCPTCRHLVIMDRHGVYGLQRNL, the protein stability index amounted to 2.99.

FRCPTCRHCVIMDRHGVYGLQRNL: the protein stability index was 2.56.

In the case of FRCPTCRHYVIMDRHGVYGLQRNL, the protein stability index was 1.86.

On to FRCPTCRHPVIMDRHGVYGLQRNL, for which the protein stability index came out at 1.94.

Consider FRCPTCRHWVIMDRHGVYGLQRNL, for which the protein stability index turned out to be 2.12.

On to FRCPTCRHKVIMDRHGVYGLQRNL, for which the protein stability index was 1.01.

FRCPTCRHMVIMDRHGVYGLQRNL: the protein stability index was determined as 2.06.

On to FRCPTCRHRVIMDRHGVYGLQRNL, for which the protein stability index worked out at 1.47.

With FRCPTCRHTVIMDRHGVYGLQRNL, the protein stability index came to 2.34.

On to FRCPTCRHFVIMDRHGVYGLQRNL, for which the protein stability index turned out to be 2.14.

As for FRCPTCRHQVIMDRHGVYGLQRNL, the protein stability index came to 2.63.

Regarding FRCPTCRHDVIMDRHGVYGLQRNL, the protein stability index turned out to be 1.79.

Regarding FRCPTCRHNVIMDRHGVYGLQRNL, the protein stability index came to 2.69.

FRCPTCRHIVIMDRHGVYGLQRNL: the protein stability index was determined as 1.43.

With FRCPTCRHVVIMDRHGVYGLQRNL, the protein stability index stood at 3.23.

As to FRCPTCRHHVIMDRHGVYGLQRNL, the protein stability index was 2.63.

Take FRCPTCRHEMIMDRHGVYGLQRNL: the protein stability index is 1.74.

On to FRCPTCRHEWIMDRHGVYGLQRNL, for which the protein stability index was 2.16.

As for FRCPTCRHEAIMDRHGVYGLQRNL, the protein stability index is 2.65.

For FRCPTCRHEDIMDRHGVYGLQRNL, the protein stability index amounted to 2.9.

With FRCPTCRHEYIMDRHGVYGLQRNL, the protein stability index is 2.05.

On to FRCPTCRHELIMDRHGVYGLQRNL, for which the protein stability index is 2.73.

As to FRCPTCRHERIMDRHGVYGLQRNL, the protein stability index is 2.41.

Turning to FRCPTCRHEEIMDRHGVYGLQRNL, the protein stability index was found to be 1.91.

In the case of FRCPTCRHEHIMDRHGVYGLQRNL, the protein stability index was 1.59.

For FRCPTCRHEKIMDRHGVYGLQRNL, the protein stability index was 3.42.

Turning to FRCPTCRHETIMDRHGVYGLQRNL, the protein stability index came to 2.62.

In the case of FRCPTCRHEIIMDRHGVYGLQRNL, the protein stability index worked out at 2.51.

With FRCPTCRHEGIMDRHGVYGLQRNL, the protein stability index was found to be 2.58.

Turning to FRCPTCRHECIMDRHGVYGLQRNL, the protein stability index amounted to 2.18.

For the variant FRCPTCRHESIMDRHGVYGLQRNL, the protein stability index came out at 3.91.

As to FRCPTCRHEPIMDRHGVYGLQRNL, the protein stability index came to 1.76.

For the variant FRCPTCRHEFIMDRHGVYGLQRNL, the protein stability index turned out to be 2.25.

As for FRCPTCRHENIMDRHGVYGLQRNL, the protein stability index was 3.46.

Turning to FRCPTCRHEQIMDRHGVYGLQRNL, the protein stability index was found to be 1.8.

In the case of FRCPTCRHEVIMDRFGVYGLQRNL, the protein stability index stood at 1.67.

Turning to FRCPTCRHEVIMDRMGVYGLQRNL, the protein stability index stood at 2.71.

For FRCPTCRHEVIMDRIGVYGLQRNL, the protein stability index worked out at 2.19.

FRCPTCRHEVIMDRLGVYGLQRNL: the protein stability index is 2.17.

On to FRCPTCRHEVIMDRSGVYGLQRNL, for which the protein stability index stood at 2.44.

Consider FRCPTCRHEVIMDREGVYGLQRNL, for which the protein stability index came to 2.43.

As for FRCPTCRHEVIMDRAGVYGLQRNL, the protein stability index amounted to 1.67.

As for FRCPTCRHEVIMDRNGVYGLQRNL, the protein stability index was determined as 2.13.

For the variant FRCPTCRHEVIMDRPGVYGLQRNL, the protein stability index was determined as 2.66.

For the variant FRCPTCRHEVIMDRWGVYGLQRNL, the protein stability index is 2.11.

As to FRCPTCRHEVIMDRKGVYGLQRNL, the protein stability index turned out to be 2.16.

Take FRCPTCRHEVIMDRYGVYGLQRNL: the protein stability index was found to be 2.49.

For the variant FRCPTCRHEVIMDRGGVYGLQRNL, the protein stability index was 2.12.

With FRCPTCRHEVIMDRRGVYGLQRNL, the protein stability index came out at 1.48.

Consider FRCPTCRHEVIMDRCGVYGLQRNL, for which the protein stability index worked out at 2.32.

With FRCPTCRHEVIMDRDGVYGLQRNL, the protein stability index came to 2.08.

FRCPTCRHEVIMDRVGVYGLQRNL: the protein stability index stood at 3.01.

FRCPTCRHEVIMDRQGVYGLQRNL: the protein stability index came to 3.54.

For the variant FRCPTCRHEVIMDRTGVYGLQRNL, the protein stability index was 2.46.

With FRCPTCRHEVPMDRHGVYGLQRNL, the protein stability index came to 2.05.

FRCPTCRHEVFMDRHGVYGLQRNL: the protein stability index was found to be 2.23.

For the variant FRCPTCRHEVLMDRHGVYGLQRNL, the protein stability index is 2.18.

As to FRCPTCRHEVHMDRHGVYGLQRNL, the protein stability index amounted to 2.54.

FRCPTCRHEVSMDRHGVYGLQRNL: the protein stability index was found to be 2.52.

In the case of FRCPTCRHEVNMDRHGVYGLQRNL, the protein stability index was 2.82.

Take FRCPTCRHEVKMDRHGVYGLQRNL: the protein stability index came out at 1.77.

Consider FRCPTCRHEVCMDRHGVYGLQRNL, for which the protein stability index was determined as 2.02.

For the variant FRCPTCRHEVDMDRHGVYGLQRNL, the protein stability index is 1.08.

On to FRCPTCRHEVQMDRHGVYGLQRNL, for which the protein stability index came out at 1.61.

Turning to FRCPTCRHEVYMDRHGVYGLQRNL, the protein stability index was 1.74.

As to FRCPTCRHEVTMDRHGVYGLQRNL, the protein stability index turned out to be 2.48.

On to FRCPTCRHEVVMDRHGVYGLQRNL, for which the protein stability index came out at 1.88.

On to FRCPTCRHEVAMDRHGVYGLQRNL, for which the protein stability index was 1.69.

As for FRCPTCRHEVGMDRHGVYGLQRNL, the protein stability index was found to be 3.3.

On to FRCPTCRHEVRMDRHGVYGLQRNL, for which the protein stability index turned out to be 3.19.

On to FRCPTCRHEVEMDRHGVYGLQRNL, for which the protein stability index amounted to 1.85.

Turning to FRCPTCRHEVWMDRHGVYGLQRNL, the protein stability index worked out at 1.69.

On to FRCPTCRYEVIMDRHGVYGLQRNL, for which the protein stability index was 2.34.

Consider FRCPTCRREVIMDRHGVYGLQRNL, for which the protein stability index came out at 1.89.

FRCPTCRTEVIMDRHGVYGLQRNL: the protein stability index was found to be 2.31.
